According to article PMC12598616, “Design and optimization of caspase-1-responsive fluorescent probes for pyroptosis imaging and anti-pyroptosis drug screening” (Chemical Science, 2025):

Target: T1, caspase-1 (Homo sapiens, UniProt P29466)
T1 sequence (P29466 120-297 limits assumed): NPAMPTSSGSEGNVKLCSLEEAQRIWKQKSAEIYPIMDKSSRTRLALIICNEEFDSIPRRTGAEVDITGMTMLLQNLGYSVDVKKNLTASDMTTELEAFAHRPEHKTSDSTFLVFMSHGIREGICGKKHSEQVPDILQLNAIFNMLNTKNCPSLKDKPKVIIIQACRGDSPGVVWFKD
T1 sequence (P29466 317-404 limits assumed): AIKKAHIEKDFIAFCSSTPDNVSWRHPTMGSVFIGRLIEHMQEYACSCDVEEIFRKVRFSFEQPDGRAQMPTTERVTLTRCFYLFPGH
Experiment: Enzyme kinetic studies with caspase-1
Format: biochemical
Settings: probe 0.5–4 μM, Cas-1 2 U/mL, HEPES assay buffer, 37 °C, read every 2 min, λex 510 nm/λem 585 nm, Lineweaver-Burk plot; read-out: Michaelis constant (KM)
Method: The spectral and chemical properties of all probes were then evaluated. Upon interaction with Cas-1, the specific peptide of the probes is cleaved, leading to the disruption of the FRET process in the system and the recovery of donor fluorescence (Fig. 2a). Prior to fluorescence detection, the UV-vis absorption spectra of the probes were acquired. […] Subsequently, the sensitivity of the probes towards Cas-1 was measured in HEPES buffer (50 mM HEPES, 50 mM NaCl, 0.1% chaps, 5% glycerol, 10 mM DTT, 10 mM EDTA). […] The response differences among the probes were more intuitively observed by analyzing the standard curves of fluorescence intensity at 585 nm against the concentration of Cas-1 (Fig. 2b). […] The reaction kinetics of the probes were also measured by monitoring the fluorescence intensity of FPy1, YPy1 and WPy1 (0.5–4 μM) following incubation with Cas-1 (2 U mL^−1) (Fig. S3a–f). […] The reaction time of the probes was also investigated by monitoring the fluorescence spectra of the probes (5 μM) incubated with Cas-1 (2 U mL^−1) at various time intervals (Fig. S4a–c). […] Finally, the selectivity of the probes was evaluated. A series of potential biologically relevant interferents were selected, and the results illustrated that these interferents had no effect on the probes (Fig. S5a–c). […]

–FLTDG– [FPy1, RhoB donor, hNR quencher]
Km: 4.42 µM
